Results taken from the nanobody polyreactivity screen of Harvey et al. (2022).

Test: yeast display, Sf9 membrane polyspecificity reagent, FACS + sequencing; frameworks hold sequencing errors
Method in brief: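 Polyreactivity labels are assigned by the sorting gate from which each nanobody was recovered. The gates were low and high (top ~1%), set on anti-HA fluorescence for expression and streptavidin fluorescence for reagent binding. Before sorting, galactose-induced (36–48 hours) yeast display cells were stained for 1 hour at 4 °C with 10% biotinylated, detergent-solubilized Sf9 membrane reagent.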

| Sequence | polyreactivity (PSR sort gate) |
| --- | --- |
| QVQLVESGGGLVQAGGSLRLSCAASGRTFYGYTMGWYRQAPGKERELVAAISRNGASTFYADSVKGRFTISRDNAKNTVYLQMNSLKPEDTAVYYCNARSWRHTDTSFEYWGQGTQVTVSS | high polyreactivity |
| QVQLVESGGGLVQAGGSLRLSCAASGFIFNRYVMGWYRQAPGKERELVAVISRGGSTSYADSVKGRFTISRDNAKNTVYLQMNSLKPEDTAVYYCNAVHSRVYYSLGYGYWGLGTQVTVSS | high polyreactivity |
| QVQLVESGGGLVQAGGSLRLSCAASGRTFVYNAMGWYRQAAGKEWELVAAISSDGASTYYADSVKGRFTISRDNAKNTAYLQMNSLKPEDTAVYYCAADFSYYSYEHYYWGQGTQVTVSS | low polyreactivity |
| QVQLVESGGGLVQAGGSLRLSCAASGLIFSLNAMGWYRHATGKERELVAAISSDDSTYYADSVKGRFTISRDNAKNNVYLQMNSLTPEDTAVYYCAAVQLVPGYVDSNDYYWGQGTQVTVSS | low polyreactivity |
| QVQLVESGGGLVQAGGSLRLSCAASGYTFVYYAMGLYREAPGKERELVAAITSGGRTNYADSVKGRFTISRDNAKNTVYLQMNSLKPEDTAVYYCNVDGYYLFVRGYEYWGQGTQVTVSS | low polyreactivity |
| QVQLVESGGGLVQAGGSLRLSSAASGSTSRYYDMGWYRQSPGKVRELVAAITWSGGTTYYADSVKGRFTISRDNAKNTVYLQMNSLKPDDPAVYYCAADASYTYYEFVYWGQGTQVTVSS | low polyreactivity |
| QVLLQETGGGLVQAGGSLSLSCAASGTISTDIRMGWYRLAPGKEREFVASIDGCSTTYYADSVKGRFTFSRDNAKNTVYLQMNRLIPEDTSMYYCAAREATEFYLYYWGQGTQVTVSS | low polyreactivity |
| QVQLVESGGGLVQAGGSLRLSCAASGLILYYYTMGWYRQAPGKERELVAAINSGGNTYYADSVKGRFTISRDNAKNTVYLQMNSLKPEDTAVYYCNAYRVRYKRSYDYWGQGTQVTVSS | high polyreactivity |
| QFQLVESGGGLVQAGGSLRLSCAASGSFSGTNAMGWYRQAPGKERELVAGISYGGGSTYYADSVKGRFTISRDNAKNTVYLQMNSLKPEDTAVYYCAKYYAPYRFYYCGQGTQVTVSS | high polyreactivity |
| QVQLVESGGGLVQAGGSLRLSCAASGRIFGRYAMGWYRQAPGKERELVAAITSSGGSTYYADSVKGRFTISRDNAKNTVYLQMNSLKPEDTAVYYCAADSQYKYDYWGQGTQVTVSS | high polyreactivity |
| QVPLAETGGGLVQAGGSLRLSCASSGSIYRYAMGWYRKEPGKEREFVAANTWNGGSTYYADSVKGRLTRSLDYAKNTVYLPMNSLKPEDTAVYNCAADWSYFRRHFDYWVQGTQVTVSS | high polyreactivity |
| QVQIVESGGGLVQAGGSLRLSCAASGRTFPYYVMGWYRHAPGKERELVATISSSGRTYYADSVKGRFTISRDNAKNTVYLQMNSLKPEDTAVYYCAARFRWNQNYHFYYWGQGTQVTVSS | high polyreactivity |
| QVQLVESGGGLFHAGGSLRLSCPDSGSTFYRYTMGCYRQAPGKERELVAAITSGGGTDYADSVKARFTISRDNAKNTVYLQLISLKPEDTAVYFCADFLSWRDYYLYWRGSWREDYWGQGTQVTVSS | low polyreactivity |
| QVQLVESGGGLVQAGGSLRLSCAASGSTFKFNTMGWYRQAPGKERELVAAISWRGGSTYYADSVKGRFTISRDNAKNTVYLQMYSLKPEDTAFYYCAAPWYIRYDSWGQGTQVTVSS | high polyreactivity |
| QVQLVESGVGLDQARGSLRLSCAASGITFDDYAMGWYRQAPGKERELVAAISVSGGDTYYADSVKGRFTISRDNAKNTVYLQMNSLKPEDSAVYYCAAEEVSPRWYEYWGQGTQVTVSS | low polyreactivity |
| QVQLVESGGGLVQAGGRLRLSCAASGRTLGVYTMGWYRQAPGKERELVATISYNGGSTYYADSVKGRFTISRDNAKNTVYLQMNSLKPEDTAVYYCAKAYDTTLTYNYWGQGTQVTVSS | low polyreactivity |
| QVQLVESGGGLVQAGGSLRLSCAASGYTFSAYAMGWYRQAPGKERELVAVINRSGVRTYYADSVKGRFTISRDNAKNTVYLQMNSLKPEDTAVYYCAAPPRANLFDYWGQGTQVTVSS | high polyreactivity |
| QVQLVESGGGLVQAGCSLRLSCAASGRTFPPYAMGWYRQAPRKERELVAAISRRAGTTYYADSVKGRFTISRDNAKNTVYLQMNSLKPEDTAVYYCAALSESSSYGYWGQGTQVTVSS | low polyreactivity |
| QVQLVESGGGLVQAGGSLRLSCAASGRTFKYYTMGWYRQAPGKERELVAAISASGGSTYYADSVKGRFTISRDNAKNTVYLQMNSLKPEDTAVYYCAKGANRAIHKQPTRSRLDSWGQGTQVTVSS | high polyreactivity |
| QVQLVESGGGLVQAGGSLRISCAASGRIFVSNAMGWYRQAPGKDRELVAAISKSGARTSYADSVKGRFTISRDNAKNTVYLQMNSLKPEDTAVYYCAAPVRWSGGGEYPNYYWGQGTQVTVSS | high polyreactivity |
| QVQLVESGGGLVQAGGSLRLSCAASGRIFYPYVMGWYRQAPGKERELVAAISDTTGSTYYADSVKGRFTISRDNAKNTVYLQMNSLKPEDTEVFYCAAGWFYATYWRFYYWGQGTQVTVSS | low polyreactivity |
| QVQLVESGGGLVQAGGSLRLRCAASGRIFGLYAMGWYRQAPGKERQLVAAISRGGGSTYYADSVKGRFTISRDNAKNTVYLQMNSLNPEDTEVYYCATGLGYFSRLDYCGQGTQVTVSS | low polyreactivity |

| Sequence | polyreactivity (PSR sort gate) |
| --- | --- |
| QVQLLESGGGLVQAGGSLRLSCAASGLIFGENAMGWYRQAPGKERELVAAISRRAGITYYADSVKGRFTISRDNAKNTVYLQMNSLKPEDTAVYYCAAQYYLYRSRFDYWGQGTQVTVSS | high polyreactivity |
| QVQLVESGGGLVQAGGSLRLSCAASGRIFTTYAMGWYRPAPGKERELVAANTSGGRTNYADSVKGRFTISRDNAKNTVYLQMNSLKPEDTAVYYCAADGGVRRLTGLLYSFDYWGQGTQVTVSS | low polyreactivity |
| QVQLVESGGGLVQAGGSLRLSCAASGSTFRWYAMGWYRQAPGKERDLVAAISARGTSTYYADSVKGRFTISRDNAKNTVYLQMNSLKPEDTAVSYCAAPQQQSWTYDGRYGYWGQGTQVTVSS | high polyreactivity |
| QVQLVESGGGLGQAGGTLRLTCAASGSIFRTYAMGWYRQAPGKERELVAAITWSGGRTYYADSVKGRFTISRDNATNTVYLPMISLKPDDTAVYYCNAVYLAYGGDYWGQGTQVTVSS | high polyreactivity |
| QVQLVSGGGLVQAGGSLRLSCAASGRIFGTYAMGWYRQAPGKERELVAAITSGGSTYYADSVKGRFTISRDNAKNTVYLQMNSLKPEDSAVYYCAAEYAIWTHWGRYVTGNYWGQGTQVTVSS | high polyreactivity |
| QVQLVESGGGLVQAGGSLRLICAASGNIFDVNAMGLYRQAPGKERELVAGITTNGGRTFYADSVKGRFTFSRDNAKNTVYLQMNSLKPEDTAVYYWNARHGRHRRTPFAKYDFWGQGTQVTVSS | high polyreactivity |
| QVQLVESGGGLVQAGGSLRLSCAASGRIFYANVMGWYRQAPGKEREFVSAIRWSGGRSYYADSVKGRFTISRDNAKYTVYLQMNSLKPEDTAVYYCAADGRVQSPQKFGYDYWGQGTQVTVSS | low polyreactivity |
| QVQLVESGGGLVQAGGSLSLSCAASGSTFRHYAMGGYRQAPGKERELVAAISSRGGSTHYADSVKGRFTISRDNAKNTVYLQMNSLKPEDTAVYYCARDTDTQSSRSSDYDYWGQGTQVNVSS | low polyreactivity |
| QVQLVESGGGLVQAGGSLRLSCAASGSILGGNAMGWYRQAPGKERELVAAITFSGGGTYYADSVKGRFTISRDNGKNTVYLQMNSLKPEDTALYNCAADKDGYTYEFDYWGQGTQVTVSS | low polyreactivity |
| QVQLVESGGGLVQAGGSLRLSCAASGFIFPWYAMGWYRLAPGKERELVAIISWDTGSTYYADSVKGRFTISRDNAKNTVYLQMNSLKPEDTAVYYCVAYVCSTYSAPEYYWGQGTQVTVSS | low polyreactivity |
| QVQLVESGGGLVQAGGSLRLSCAASGRIFVRNAMGWYRQAPRKERELVADITNGGSTNYADSVKGRFTISRDNGMNTVYLQMNSLKPEDTAVYYCAADTLGVYDGDYWGQGTQVTVSS | low polyreactivity |
| QVQLVESGGGLVQAGGSLRLSCAASGSTFDVYAMGWYRQAPGKERELVAAISRSGGSTYYADSVKGRFTISRDNAKNTVYLQMNSLKPEDTAVYYCNARLARWGSYEYNYWGQGTQVTVSS | low polyreactivity |
| QVQLVESGGGLDQAGGSLRLSCAASGSTFTSNAMGWYRQAPGKERELVAAITWSGARTYYADSVKGRFTISRDNAKNTVYLQLNSLKPEDTAVYYCAAYIAGVTGGSGYYYWGQGTQVTVSS | high polyreactivity |
| QVQLVESGGGLVQAGGSLSLSCAASGRIFVRNTMGWYRQAPGKERELVATISRRGGITYYADSVKGRFTISRDNAKNTVYLQMNSLKPEDTAVYYCAAESYSFWLYDYCGQGTQVTVSS | high polyreactivity |
| QVQLVESGGGLVQAGGSLRLSCAASGRIFYPYAMGWYREAPGKERELVAAITVRGGRTYYADSVKGRFTFSRDNAKNTVYLQMNSLKPEDTAVYYCAARRWGAYRHGYWGQGTQVTVSS | high polyreactivity |
| QVQLVESGGGLVQAGGSLRLSCAASGGTLRYYAMGGYRQAPGKERELVAVITSSAGRTYYADSVKGRFTISRDNAKNTVYLQMNSLKPEDTAVYYCPAYDAYSPYQALYDYWGQGTQVTVSS | low polyreactivity |
| QVQLVESGVGLVQAGGSLRLSCAASGFTFQYYAMGWYRQAPGKERELVAAITRGDSTNYADSVKGRFTISRDNAKNTVYLQMNSLKPEDTAVYYCAAGSAPSYWGGWYYERDYWGQGTQVTVSS | low polyreactivity |
| QVQLVESGGGLVQAGGSLRLSCAASGLIFGSYAMGWSRQAPGKERELVAAISRSGGSTYYADSVKGRFTISRDNAKNTVYLQMNSLKPEDTAVYYCAARGYPLGIGRIKRNYWGQGTQVTVAS | high polyreactivity |
| QVQLVESGGCLVQAGGSLRLICAASGSIFDINAMGWYSQAPGKERELVADIRRGDSTNYADSVKGRFTISRDNAKNTVYLQMNSLKPEDTAVYYCAARWRRSIYGFYPQRPYDYWGQGTQVTVSS | high polyreactivity |
| QVQLVESGGGLVQAGGSLRFSCAASGRIFPAYAMGWYRQAPGKEREWVDAISRRGGSTYYADTVKGRFTISRDNAKNTVYLQMNSLNPEDTAVYYCAKEVWDSLGYPHSGDYWGQGTQVTVSS | low polyreactivity |
| QVQIVESGGGLEQAGGSLRLSCAASGRIFNRYAMGWYRQAPGKDWELVARNSWSGARTYYADSVKGRFTISRDNAKNTVYLQMNRLKPEDTAVSYCAAAVTYPAGGRTSLYEYWGQRTQVTVSS | high polyreactivity |
